{"source": "paper PMC2797979", "about": "(Diabetes Care, 2009)", "origin": "cited, not measured here", "settings": "long-acting insulin analogs", "data": [{"substance": "detemir", "values": [{"measurement": "Elimination half-life", "value": 24, "unit": "h"}]}]}
